{"source": "patent US12064464B2", "about": "“Plantaricin NC8 alpha beta markedly enhances the effects of antibiotics” (priority 2018, dated 2024)", "molecules": {"B1": {"name": "PLNC8 αβ: two-peptide class IIb bacteriocin of L. plantarum NC8: PLNC8 α (SEQ ID NO 1) with PLNC8 β (SEQ ID NO 2) (peptide)", "alpha": "DLTTKLWSSWGYYLGKKARWNLKHPYVQF", "beta": "SVPTSVYTLGIKILWSAYKHRKTIEKSFNKGFYH", "modifications": "Lactobacillus plantarum NC8"}}, "key": {"[1]": {"system": "Streptococcus spp (S. mutans, S. constellatus, S. anginosus)", "test": "Sytox Green uptake (membrane permeabilization)", "assay_type": "cell-based", "conditions": "5 μM, 2 min", "method": "(§1) The fluorescent dye Sytox® Green, which can only cross damaged membranes and fluoresce upon binding to nucleic acids, was used to study the antimicrobial activity of PLNC8 αβ on S. epidermidis, S. aureus (MSSA, MRSA) and Streptococcus spp. The bacteria were washed and resuspended in Krebs-Ringer Glucose buffer (KRG) (120 mM NaCl, 4.9 mM KCl, 1.2 mM MgSO4, 1.7 mM KH2PO4, 8.3 mM Na2HPO4, and 10 mM glucose, pH 7.3) and incubated in the presence or absence of different combinations of PLNC8 αβ in 96-well microtiter plates for 2 min. Images were captured with Olympus BX41 at 40× magnification."}, "[2]": {"system": "S. aureus CCUG 35601 (MRSA)", "test": "Broth microdilution MIC/MBC", "assay_type": "cell-based, Staphylococcus aureus", "from_the_text": "(§2) Staphylococcus aureus CCUG 35601 (MRSA, Culture Collection, University of Gothenburg) and Staphylococcus aureus ATCC 29213 (MSSA, ATCC, Manassas, VA). Staphylococcus epidermidis ATCC 12228 (ATCC, Manassas, VA), RP62A, N15 and 10 clinical isolates of Staphylococcus epidermidis that have previously been characterized. Isolated Escherichia coli, Enterococcus faecium (including VRE), Pseudomonas aeruginosa, Klebsiella pneumoniae, Enterobacter spp and Acinetobacter baumannii were obtained from Orebro University hospital. Isolated Streptococcus mutans, Streptococcus constellatus and Streptococcus anginosus were obtained from Malmo University. The bacteria were grown on Luria-Bertani (LB) agar plates, supplemented with 5% defibrinated horse blood, and incubated at 37° C. overnight. Single colonies were inoculated into 5 ml of LB broth and incubated on a shaker (300 rpm) at 37° C. overnight. The bacterial concentration was determined by viable count and adjusted to correlate with approximately 10^9 CFU/ml.\n(§3) The broth microdilution method was used to determine minimal inhibitory concentration (MIC) and minimal bactericidal concentration (MBC). Two-fold serial dilutions of the peptides were used and the final concentrations ranged from 0.097-50 μM. […] The effect of bacteriocin-antibiotic combinations was accomplished by using the same concentration series of antibiotics with a constant concentration of PLNC8 αβ (3.1 μM) in all the wells. […] All experiments were repeated at least three times."}, "[3]": {"system": "S. aureus ATCC 29213 (MSSA)", "test": "Broth microdilution MIC/MBC", "assay_type": "cell-based, Staphylococcus aureus", "conditions": "Table 1, peptide alone, 20 h; no unit in table, μM", "from_the_text": "as §2, §3"}, "[4]": {"system": "antibiotic resistant bacteria", "test": "Combination of PLNC8 αβ with antibiotics, summary over tested bacteria", "assay_type": "cell-based", "conditions": "wide range of antibiotics", "method": "as §3"}, "[5]": {"system": "S. epidermidis", "test": "Aggregation and ATP release", "assay_type": "cell-based, Staphylococcus epidermidis", "method": "Aggregation and extracellular release of ATP were used to study the effects of PLNC8 αβ on the bacteria. ATP was registered using a luciferin/luciferase bioluminescence assay (Sigma, St. Louis, Mo, USA) in bacterial suspensions (2.5×10^8 CFU/ml). The bacteria were exposed to different concentrations of PLNC8 αβ, and real-time changes in light transmission and bioluminescence were recorded in a Chronolog lumi-aggregometer (Chrono-Log, Haverton, PA, USA) for 30 min. The levels of ATP were calculated based on the bioluminescence signals recorded in response to known concentrations of ATP."}, "[6]": {"system": "human erythrocytes", "test": "Hemolysis", "assay_type": "cell-based", "conditions": "0.5-50 μM, 1 h; listed as L-PLNC8 αβ", "method": "The hemolytic activity of the peptides was investigated by collecting blood from healthy volunteers in heparinized vacutainers. The blood was centrifuged at 600×g for 5 min and the erythrocyte pellet was washed three times in PBS. The cells were then suspended in PBS and added to 96-well plates (15% erythrocyte suspension/well), containing the peptides with two-fold serial dilution. The plates were incubated for 1 h at 37° C. followed by centrifugation for 5 min at 900×g and measurement of the supernatants at 540 nm. Haemolytic activity (%) was calculated by subtracting the negative control from all values and normalization against the positive control (0.5% Triton X-100), that was set to 100%. All experiments, each in duplicate, were repeated three times."}, "[7]": {"system": "S. epidermidis", "test": "Broth microdilution MIC/MBC, strain not named", "assay_type": "cell-based, Staphylococcus epidermidis", "from_the_text": "as §2, §3"}, "[8]": {"system": "wounds infected with S. aureus", "test": "Porcine wound model", "assay_type": "in vivo, pig", "conditions": "PLNC8αβ 50 μM, every other day, 7 days", "from_the_text": "Three wounds were created per condition with the following conditions: control (PBS), […]/gentamicin and […]8 αβ. […] The pig was returned to the pen and monitored during recovery from anesthesia. […] This procedure was repeated every other day for seven days (a total of four doses of treatment of the infected wounds)."}, "[9]": {"system": "S. aureus (MSSA and MRSA)", "test": "Sytox Green lysis and time-kill assay", "assay_type": "cell-based, Staphylococcus aureus", "method": "as §1"}, "[10]": {"system": "HaCaT cells infected with MSSA", "test": "Keratinocytes infected with MSSA: LDH, ELISA, RT-qPCR, scratch assay", "method": "Human keratinocytes (HaCaT) were cultured in Dulbecco's modified Eagle medium (DMEM, Fisher Scientific, New York, USA) supplemented with 10% FBS (FBS, Invitrogen Ltd, Paisley, UK) incubated in a stable environment at 95% air, 5% CO2 and 37° C. The cells were used at passages 1-20.\nHaCaT cells were cultured overnight in a 24-well plate at a seed-count of 2×10^5 cells per well. […] Co-stimulation was performed by infection of human keratinocytes, in the presence or absence of PLNC8 αβ, for 24 h, or infection of the cells for 1 h followed by addition of different concentrations of PLNC8 αβ for 6 h. Furthermore, infection of keratinocytes, with or without PLNC8 αβ, were monitored in real-time for 72 hours using IncuCyte Live-cell Analysis System. Bacterial load was quantified by measuring the fluorescence of green fluorescent protein (GFP) and cell viability was determined by measuring the fluorescent dye Draq7 that stains nuclei of dead cells.\nELISA was performed on supernatants retrieved from human keratinocytes that were exposed to MSSA and PLNC8 αβ. The levels of CXCL8 (Human IL-8 ELISA MAX Deluxe, Nordic Biosite, Sweden) and IL-6 (Human IL-6 ELISA MAX Deluxe, Nordic Biosite, Sweden) were quantified according to the manufacturer's instructions."}, "[11]": {"conditions": "Table 1, peptide alone, 20 h, no unit in table, μM"}, "[12]": {"conditions": "infection 1 h, then peptide 6 h"}}, "note": "Entries after “also recorded” stand apart in the source; their conditions may differ."}
{"molecule": "B1", "values": [{"measurement": "relative susceptibility of Streptococcus species", "setting": "[1]", "result": "S. constellatus and S. anginosus were more susceptible to PLNC8 αβ than S. mutans"}, {"measurement": "MBC", "setting": "[2]; [11]", "result": 25, "unit": "µM"}, {"measurement": "MIC", "setting": "[2]; [11]", "result": 12.5, "unit": "µM"}, {"measurement": "MBC", "setting": "[2]; Table 3, MRSA, peptide alone", "result": 25, "unit": "µM"}, {"measurement": "MIC", "setting": "[2]; Table 3, MRSA, peptide alone", "result": 12.5, "unit": "µM"}, {"measurement": "MBC", "setting": "[3]", "result": 25, "unit": "µM"}, {"measurement": "MIC", "setting": "[3]", "result": 12.5, "unit": "µM"}, {"measurement": "enhancement of the effects of antibiotics", "setting": "[4]", "result": "2-130 fold"}, {"measurement": "release of ATP (bacterial lysis)", "setting": "[5]", "result": "dose-dependent release of ATP"}, {"measurement": "aggregation of bacteria", "setting": "[5]; low concentrations", "result": "bacteria aggregates when exposed to low concentrations"}, {"measurement": "hemolytic activity", "setting": "[6]", "result": "no hemolytic activity was observed; also recorded: low hemolytic activity"}, {"measurement": "decrease of MIC and MBC of gentamicin by the peptides", "setting": "[7]; S. epidermidis, FIG. 15", "result": "15-30 fold"}, {"measurement": "decrease of MIC and MBC of rifampicin by the peptides", "setting": "[7]; S. epidermidis, FIG. 15", "result": 100, "unit": "fold"}, {"measurement": "decrease of MIC and MBC of vancomycin by the peptides", "setting": "[7]; S. epidermidis, FIG. 15", "result": 2, "unit": "fold"}, {"measurement": "inhibition of S. epidermidis isolated from PJIs", "setting": "[7]; incl. hGISE, FIG. 14", "result": "effectively inhibits different strains of S. epidermidis isolated from PJIs, including S. epidermidis (hGISE)"}, {"measurement": "infection and wound healing in vivo", "setting": "[8]", "result": "inhibited infection and promoted wound healing in vivo"}, {"measurement": "lysis and killing of S. aureus", "setting": "[9]", "result": "dose-dependently and rapidly lysed and killed S. aureus"}, {"measurement": "S. aureus-mediated cytotoxicity (LDH) and cell viability", "setting": "[10]; [12]", "result": "antagonized S. aureus-mediated cytotoxicity and inflammatory responses, and promoted cell viability"}, {"measurement": "secretion of IL-6 and CXCL8", "setting": "[10]; [12]", "result": "significantly reduced"}, {"measurement": "secretion of IL-6 and CXCL8", "setting": "[10]; infection with MSSA, 24 h", "result": "reduced bacteria-induced secretion of IL-6 and CXCL8"}, {"measurement": "wound healing (scratch assay)", "setting": "[10]; infection with MSSA, 24 h", "result": "promoted wound healing in vitro of human keratinocytes following an infection with S. aureus"}]}
